Measured values published in the nanobody polyreactivity screen of Harvey et al. (2022).

Assay: yeast display, Sf9 membrane polyspecificity reagent, FACS + sequencing; frameworks hold sequencing errors
Procedure, shortened: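 Sorting gates, low and high (top ~1%), were placed on anti-HA fluorescence to track expression and on streptavidin fluorescence to track reagent binding. A clone's polyreactivity label is taken from the gate it came out of. The reagent was 10% biotinylated, detergent-solubilized Sf9 membrane, applied for 1 hour at 4 °C to galactose-induced yeast display cells.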

Sequence	polyreactivity (PSR sort gate)
QVQLVDSCGVLVQAGGSLRLSCAASGITFNLYAMGWYRQAPGKERELVAAISNVGSTKYADSVKGRFTISRDNAKNTVYLQMNSLKPEDTAVYYCAAAQWAYWLLYNYWGQGTQVTVSS	low polyreactivity
QVQLVESGGGLVQAGVSLRLSCAASGSTFTYYAMGWYRQAPGKERELVAAITNSGGSTYYAVSVKGRFTISRDNAKNTVYLQMNSLKPEDTAVYYCAATRVDSDDRTRFYYWGQGTQVTVSS	high polyreactivity
QVQLVESGGGLVQAGGSLRLSCAASGRTFKSYAMGWYRQAPGKERELVAAITWSGGSTYYADSVKGRFTISRDNAKNTVYLQMNSLKPEDTAVYYCAADSVYYYWYGYDYWGQGTQVTVSS	low polyreactivity
QVQLVESGGGLVQAGGSLRLICAASGRIFHYYMGWYRQAPGKEMELVAVISSGDGTYYADSVKGRFTISRDNAKYTFYLQMNSLKPEDTAVYYWAADAPREYDDHYKYDDDYCGQGTQVTVSS	low polyreactivity
QVQLVESGGGLVQAGGSLRLSCAASGFTFGRYAMGWYRQAPGKERELVAAITYTDGSTYYADSVKGRFTISRDNAKNTVYLQMNSLKPEDTAVYYCAATTLSFEGGKYWSKYDYWGQGTQVTVSS	low polyreactivity
QVQLVESGGGLVQAGGSLRLSCAATGFIFFYYAMGWYRQAPGKERELFAVIDRSGGTTYYADSVKGRFTISRDNAKNTVYLQMNSLKPEDTAVYYCNADDFTYPSGWGFIYDYWGQGTQVTVSS	low polyreactivity
QVQLVESGGGLVQAGGSLRLSCAASGSTFYHNVMGWYRQAPGKERELVASIDTGDSTNYADSVKGRFTISRDNAKKTVYLQMNSLKPEDTAVYYCNAVWNTFISGRSYDYWGQGTQVTVSS	low polyreactivity
QVQLVESGGGLVQAGGSLRLSCAASGSTFASNAMGWDRQAPGKERELVAVITWRGDRTYYADSVKGRFTISRDNAKNTVYLQMNSLKPEDTAVYYCAADAYRRYGVGWEDYWGQGTQVTVSS	high polyreactivity
QVQLVESGGGLVQAGGSLSLICAASGSTFRYYTMGWYRQAPGKERELVAVISRSDDSTYADSVKGRFTISRDNAKNTVYLQMNSLKPVDTAVYYCAAAGGLFFRSTVPRGDFWGQGTQVTVSS	low polyreactivity
QVQLVESGGGLVQAGGSLRLSCAASGFTFRSYTMGWYRQAPGKERELVAAITSGGSTYYADSVKGRFTISRDNAKNTVYLQMNSLKPEDTAVYYCAVTYRWHTFIYDYWGQGTQVTVSS	low polyreactivity
QVQLVESGGGLVQAGGSLRLSCAASGRIIYVYAMGWYRQAPGKERELVAAISDSGGSTYYADSVKGRFTISRDNAKNTVYLQMNSLKPEDTAVYYCAAEGYYSDYWGQGTQVTVSS	high polyreactivity
QVQLVESGGGLVQAGGSLRLSCAASGRIFYAYTMGWYRQAPGKESELVAAIRYGGGSTYYADSVKGRFTISRDNAKNTVYLLMNSLIPEDTAVYYCARDRYNLYSRSYYWGQGTQVTVSS	low polyreactivity
QVQLQESGGGLVQAGGSLRLSCAASGSISYPRTMGWYRQAPGKEREFVAGIGVGGTTYYADSVKGRFTISRDNAKNTVYLQMHSLKPEDAAVFYFAVAAFYDKYYVYWGQGTQVTVSC	low polyreactivity
QVQLVESGGGLVQAGGSLRLSSAASGITFLTNAMGWYRQAPGKERELVAAISGRGTRTYYADSVKGRFTISRDNAKKTVFLQMNRLKPEDTAVYYCAAVRRPVHYPYDYWGQGNQVTVSS	high polyreactivity
QVQLVESGGGLVQAGGSLRLSCAASGSNFINNAMGWYRQAPGKERELVAAISGNADRTYYADSVKGRFTISRDNAKNTLYLQMNSLKPEETAVYYCNKGYGVYYTFGSWGQGTQVTVSS	low polyreactivity
QVQLVESGGGLVQAGGSLRLSCAASGYTFRSNTMGWYRQAPGKERELVAAISGRGSSTYYADSVKGRFTISRDNAKNTVYLQMNSLKPEDTAVYYWNAPYNRATYNYWGQGTQVNVSS	high polyreactivity

Sequence	polyreactivity (PSR sort gate)
QVQLVESGGGLVQAGGSLRLSSAASGFIFFRYARGWYRQEPGKEREFVAAISWSGGRTYYADSVKGRFTISRDNAKNTVYLQMNSLKPEDTAVYYCAAYPSYWGYGYPGHDYWGQGTQVTVSS	high polyreactivity
QVQLVESGGGLVQAGGSLRLSCAASGRIFWSNAMGWYRQAPGKERELVATISSGGRTYYADSVKGRFTISRDNAKNTVYLQMNSLKPEDTAVYYCNATSGYKHAWRSENGYWGQGTQVTVSS	low polyreactivity
QVQLVESGGGLVQAGGSLRLSCAASGSTFVTNAMGWYRKAPGKERELVAAIRWSGGNTYYADSVKGRFTISRDNAKNTVYLQMNSLKPEDTAVYYCAAKKHLLPSYRGIRYYYWGQGTQVTVSS	high polyreactivity
QVQLVESGGGLVQAGGSLRLSCAASGSISSFYAMGWYRQAPGKERELVAGITSGGSTNYADSVKGRFTISRDNAKNTVYLQMNSLKPEDTAVDYCAAVYKGAGTHFDVFVKEFDYWGQGTQVTVSS	low polyreactivity
QVQLVESGGGLVQAGGSLRLSCAASGRTFDIYAMGWYRQAPGKERELVADITWSDGTTYYADSVKRRFTISRDNAKNTVYLQMTSLTPEDTAVYYCNAYTVYAYDYWGQGTQVTVSS	low polyreactivity
QVQLVESGGGLVQAGGSLRLSCAASGITFKSNAMGWYRQAPGKERELVAAISRRASSTYYADSVKGRFTISRDNAKNTVYLQMNSLKPEDTAVYYCAARSTVLATVSYPFGRYYWGQGTQVTVSS	high polyreactivity
QVQLVESGGGLVQAGGSLRLSCAASGRTFKWYAMGWYRQAPGKERELVASISWSGGGTYYADSVKGRFTISRDNAKNTVYLQMNSLKPEDTAVYECAAEYYNWGDYGYDYWGQGTQVTVSS	high polyreactivity
QVQLVESGGGLVQAGGSLRLSCAASGFTFRYYTMGWYRQAPGKETELVAAINTSGAGTYYADSVKGRFTISRDNAKNTVYLQMNSLKPEDTAVYYCAATWYGLDYNYWGQGTQVTVSS	high polyreactivity
QVQLEESGGGLVQAGGSLRLSCAASGSTFQENAMGWYRQAPGKEREFVAAISGSGGSTYYADSVKGRFTISRDNAKNTVYLQMNSLKPEDTAVYYCAARHYFRSRRRYDYWGQGTQVTVSS	low polyreactivity
QVQLVESGGGLVQAGGSLRLSCAASGSIFYGYAMGWYRQAPGKERELVAGISNGGSTNYADSVKGRFTISRDNAKNTVYLQLNSLKPEDTAVYYCNATYYSAYSYLYGYWGQGTQVTVSS	low polyreactivity
QVQLVESGGGLVQAGGSLRLSCAASGSNFQVYAMGWYRQAPGKERELVATIRRTGGSTYYADSVKGRFTISRDNAKNTVYLQMNSLKPEDTAVYYCAARTYGGYVLRLDYWGQGTQVTVSS	high polyreactivity
QGQLVESGGGLVQAGGSLRLSCAASGRIFVKNAMGWYRQAPGKERELVAAINWRGTSTYYADSVKGRFTISRDNAKNTVYLQMNSLKPEDTAVYYCNRVLGYPYGVDYWGQGTQVTVSS	high polyreactivity
QVQLLESGGGLVQAGGSLRLSCAASGSTLNVYGMGWYRQAPGQERELVAAINRDGITYADSVKGRCTISRDNAKNTVYLQMNSLKPEDTAVYYCAGDPYDNSVPGWRRNMDYWGQGTQVTVSS	low polyreactivity
QVQLVESGGGLVQAGGSLRLSCAASGRIFTGNAMGWYRQAPGKERELVAAITFSGGSTYYADSVKGRFTISRDNAKNTVYLQMNSLKPEDTAVYYCATRSAWYGNWYYYWGQGTQVTVSS	high polyreactivity
QVQLVESGGGLVQAGGSLRLSCAASGRIIKFYAMGWNRQAPGKERELVAVIRSVTRTKYADSVKGRFTISRDNAKNTVYLQLNSLKPEDTAVYYCAAREVGKMDYWGQGTQVTVSS	low polyreactivity
QVQLVDSGGGLVQAGGSLRLSCAASGRTFNWYAMGWYRQETRKERELVAAISSTGGSTYYADSVKGRFTISRDNAKNTVYLQMNSLKPEDTAVYYCAAALPGYGDYYYWGQGTQVTVSS	high polyreactivity
